Here are results for one substance from patent US20030129606A1.

Test [1] has as its target MBP.
The target of test [2] is GST-ATF2 (substrate of kinase assays, residues not stated) (Homo sapiens (Human)) (UniProt P15336).
The target in test [3] is GST-IκB (Schistosoma japonicum (Blood fluke)) [GST: P08515].
Test [4] concerns the target GST-EGF-R (residues 647-688) (Homo sapiens (Human)) (UniProt P00533).

As for “GST-p38 MAP kinase (from UniProt Q16539) (enzyme)”, the relative phosphorylation (PhosphorImager) (relative phosphorylation) in test [1] came out at 0.23; in test [2], 1; in test [3], 0.001; in test [4], 0.04.
